The nature of this data set: In-vitro surface properties of lipoprotein-based artificial surfactant, pulsating bubble instrument (Example 4). The format is physicochemical. The note with it: phospholipid 10 mg/ml, 37° C., compared with native lipoprotein. The method, then: To this mixture surfactant lipoprotein dissolved in chloroform/methanol 1:2 (v/v) was added, giving a lipoprotein to phospholipid ratio of 1:50. The solvents were evaporated to dryness and the different surfactant preparations (phospholipids, phospholipids+lipoprotein fraction) were suspended in saline giving a phospholipid concentration of 10 or 80 mg/ml.
The surface properties of the lipoprotein-based artificial surfactant were analyzed with a pulsating bubble instrument (Surfactometer International, Toronto, Canada) (30). The surfactant preparations were suspended at a phospholipid concentration of 10 mg/ml, and the pressure gradient across the bubble wall was recorded at 37° C. during 50% cyclic surface compression at the rate of 40/min. Surface tension was assessed at maximal and minimal bubble sizes during the 5th cycle and after 1 and 5 min of pulsation.
The tracings therein represent pressure gradients across the bubble wall; max and min indicate maximal (radius 0.55 mm) and minimal (radius 0.40 mm) bubble size during pulsation at a rate of 40/min. A pressure gradient close to zero at minimal bubble size corresponds to nearly zero surface tension.

Consider “lipopeptide: hexapeptide H2 N-Ile-Pro-Cys-Cys-Pro-Val-COOH conjugated with palmitoyl-chloride (thioester lipopeptide) (H-IPCCPV-OH; also: palmitoyl thioester, Cys not given here)”, for which the “performance in the procedure of Example 4 (surface properties)” value is given as “performs similarly as the native lipoprotein”.

(Values after US5455227A, “Biologically active lipoprotein and its use” (KabiGen AB, priority 1988, dated 1995).)
